Measurements taken from paper PMC3651167.

Molecular target: wild-type rabbit PrP 121–230 (rabbit)
Test: SEC

Sequence of wild-type rabbit PrP 121–230 (domain or fragment) (Q95211 119-229 limits assumed): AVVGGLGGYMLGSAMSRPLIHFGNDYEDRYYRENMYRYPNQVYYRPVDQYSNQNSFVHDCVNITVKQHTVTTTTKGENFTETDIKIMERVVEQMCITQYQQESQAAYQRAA

## wild-type rabbit PrP 121–230 (domain or fragment)
  percent octamer after 4 hours: 33%
  stoichiometry N: 8
